Measured values published in patent US20140322246A1 (IGEM THERAPEUTICS, published 2014).

Target: T1, FcεRII (CD23, low affinity IgE receptor) (human, UniProt P06734 1-321)
T1 construct: whole, on cells
T1 sequence (looked up): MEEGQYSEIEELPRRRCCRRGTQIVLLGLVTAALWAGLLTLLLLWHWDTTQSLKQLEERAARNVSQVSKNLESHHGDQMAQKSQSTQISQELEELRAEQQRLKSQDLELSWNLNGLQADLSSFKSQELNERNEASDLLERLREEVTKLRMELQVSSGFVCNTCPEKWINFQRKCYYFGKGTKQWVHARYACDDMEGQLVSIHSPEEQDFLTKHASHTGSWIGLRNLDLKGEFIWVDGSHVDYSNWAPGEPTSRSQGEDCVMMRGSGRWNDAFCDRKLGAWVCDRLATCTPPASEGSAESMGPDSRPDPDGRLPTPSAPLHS
Test: flow cytometry on human primary monocytes and U937 cells
Description: FIG. 3: Flow cytometric histograms showing HMW-MAA-IgE binding. A: Binding of chimaeric IgE to A375 melanoma tumour cells (left) but not to melanocytes (right). B: Binding of IgE to U937 monocytic cells (left) and to primary […] (right). Antibody binding was detected using a goat anti-human IgE-FITC antibody. C: Flow cytometric histograms showing HMW-MAA-IgG binding to A375 melanoma tumour cells (left) and U937 monocytic cells (right). Antibody binding was detected using a goat anti-human IgG-FITC antibody.
The interactions of anti-HMW-MAA antibodies with A375 melanoma tumour cells were analysed by flow cytometry and immunofluoresence. […] The IgE antibody also bound to FcεR-expressing human primary monocytes and cells of the monocytic cell line U937, which also express both IgE receptors, FcεRI and FcεRII at low densities (FIG. 3). The IgG1 antibody bound to the surface of A375 melanoma cells and U937 monocytic cells (FIG. 3C). […] Therefore, both chimaeric antibodies of known specificity could be engineered that recognised the expected tumour target and immune effector cells.

B1: chimeric anti-HMW-MAA IgE antibody (antibody)
heavy: QVKLQQSGGGLVQPGGSMKLSCVVSGFTFSNYWMNWVRQSPEKGLEWIAEIRLKSNNFGRYYAESVKGRFTISRDDSKSSAYLQMINLRAEDTGIYYCTSYGNYVGHYFDHWGQGTTVTVSSASTQSPSVFPLTRCCKNIPSNATSVTLGCLATGYFPEPVMVTWDTGSLNGTTMTLPATTLTLSGHYATISLLTVSGAWAKQMFTCRVAHTPSSTDWVDNKTFSVCSRDFTPPTVKILQSSCDGGGHFPPTIQLLCLVSGYTPGTINITWLEDGQVMDVDLSTASTTQEGELASTQSELTLSQKHWLSDRTYTCQVTYQGHTFEDSTKKCADSNPRGVSAYLSRPSPFDLFIRKSPTITCLVVDLAPSKGTVNLTWSRASGKPVNHSTRKEEKQRNGTLTVTSTLPVGTRDWIEGETYQCRVTHPHLPRALMRSTTKTSGPRAAPEVYAFATPEWPGSRDKRTLACLIQNFMPEDISVQWLHNEVQLPDARHSTTQPRKTKGSGFFVFSRLEVTRAEWEQKDEFICRAVHEAASPSQTVQRAVSVNPGK
light: DIELTQSPKFMSTSVGDRVSVTCKASQNVDTNVAWYQQKPGQSPEPLLFSASYRYTGVPDRFTGSGSGTDFTLTISNVQSEDLAEYFCQQYNSYPLTFGGGTKLEIKRTVAAPSVFIFPPSDEQLKSGTASVVCLLNNFYPREAKVQWKVDNALQSGNSQESVTEQDSKDSTYSLSSTLTLSKADYEKHKVYACEVTHQGLSSPVTKSFNRGEC
notes: Mouse 225.28s variable regions on human epsilon and kappa constant regions; expressed in HEK cells; also called chimaeric IgE; chimaeric 225.28s IgE
binding result: binds
